Data as given in the RNAGym collection of RNA variant scans (doi:10.7554/elife.80360).

B1: HDV Ribozyme (parent)
chain: GGCCGGCAUGGUCCCAGCCUCCUCGCUGGCGCCGGCUGGGCAACAUUCCGAGGGGACCGUCCCCUCGGUAAUGGCGAAUGGGACCCA

Variants of: B1
Test: self-cleavage, relative activity (ratio to wild type); higher = more cleavage; co-transcriptional

First: C61G U79A
Second: C49A C85A
The self-cleavage of the first is lower: 0.739 for the first, 1.13 for the second.

First: C7A A78G
Second: A16U G59C
The self-cleavage of the first is lower: 0.0875 for the first, 0.997 for the second.

Going from C13G A42C to U20C G53A, the self-cleavage rises from 0 to 0.122.

First: G1U C49U
Second: G10C G31U
The self-cleavage of the first is higher: 0.391 for the first, 0.219 for the second.

First: G31A C86G
Second: G11C C48U
The self-cleavage of the first is higher: 0.573 for the first, 0.119 for the second.

Compared with A45C C66A, C14A A83C is lower in self-cleavage: 0.684 for the first, 0.0755 for the second.

Compared with A51U U79G, U12G C15A is lower in self-cleavage: 0.534 for the first, 0.237 for the second.

Going from G1U C13A to G38C A71C, the self-cleavage falls from 0.321 to 0.231.

Compared with G10C A87U, G38U U60G is lower in self-cleavage: 0.984 for the first, 0.13 for the second.

First: G2C C61A
Second: A8U C24U
The self-cleavage of the first is lower: 0.0391 for the first, 0.787 for the second.

First: G11C G50C
Second: C24G C62U
The self-cleavage of the first is higher: 0.365 for the first, 0.142 for the second.

Compared with U47G C48A, G39C A71U is lower in self-cleavage: 0.798 for the first, 0.229 for the second.

Going from U12A A71G to U37A C49G, the self-cleavage rises from 0 to 0.201.

First: C32A G39U
Second: C18G C58A
The self-cleavage of the first is higher: 0.237 for the first, 0.0573 for the second.

Compared with U37G A87C, A42U C61A is higher in self-cleavage: 0.0764 for the first, 0.47 for the second.

Going from G31A G35A to U69C A83G, the self-cleavage rises from 0.0455 to 0.755.

First: C48A U79A
Second: C3U C19G
The self-cleavage of the first is higher: 0.974 for the first, 0.0171 for the second.

Going from A16U G74C to G25U A56U, the self-cleavage rises from 0.175 to 0.249.

First: C15A U46A
Second: G35A A56U
The self-cleavage of the first is lower: 0.361 for the first, 0.72 for the second.

Compared with U9C G38C, G28U C61G is lower in self-cleavage: 0.107 for the first, 0.0678 for the second.

Compared with C24A G38A, G2U A43C is lower in self-cleavage: 0.208 for the first, 0.0292 for the second.

Compared with G2U U47A, G25U G81A is higher in self-cleavage: 0 for the first, 0.124 for the second.

Going from U27C A87C to C18G C49U, the self-cleavage falls from 0.595 to 0.138.

Going from U37A U65C to G53C G67U, the self-cleavage rises from 0.225 to 0.631.

Going from C84G C86U to C22G C64A, the self-cleavage falls from 0.675 to 0.125.

First: A51C G67U
Second: A51G U79A
The self-cleavage of the first is higher: 0.939 for the first, 0.675 for the second.

First: G38C C62A
Second: C3G C49U
The self-cleavage of the first is lower: 0.354 for the first, 0.673 for the second.

First: C24G C86G
Second: A42C C61A
The self-cleavage of the first is lower: 0.112 for the first, 0.312 for the second.

Going from C13U G81U to U27C G40U, the self-cleavage rises from 0.163 to 0.7.

Going from A16C G54A to A8U A78G, the self-cleavage falls from 0.866 to 0.388.

First: G11A G38C
Second: C58U G59U
The self-cleavage of the first is lower: 0.0911 for the first, 1.05 for the second.

Compared with G28A G52U, C21A C63U is lower in self-cleavage: 0.0475 for the first, 0.0462 for the second.

Going from C32U C62A to G55A A78C, the self-cleavage falls from 0.906 to 0.0639.

Going from C4A C32U to C36G G80A, the self-cleavage falls from 0.0489 to 0.0382.

Going from A16U C64G to C22G A77G, the self-cleavage falls from 0.782 to 0.0504.

Compared with C7U U37C, A56C C63U is lower in self-cleavage: 1.14 for the first, 1.01 for the second.

Going from G17U C64A to A8C U23G, the self-cleavage falls from 0.601 to 0.332.

Compared with G67A A77C, G38U C58G is lower in self-cleavage: 0.325 for the first, 0.306 for the second.

Going from G1C A77C to U20C A43C, the self-cleavage rises from 0 to 0.178.

First: A78C G82U
Second: G50C G76C
The self-cleavage of the first is lower: 0.212 for the first, 1.08 for the second.

Compared with U20C U69C, G2C C57A is lower in self-cleavage: 0.208 for the first, 0.086 for the second.

Going from U46G U79A to C49U G73U, the self-cleavage rises from 0.356 to 0.509.

Going from G29C C30U to A45C C49G, the self-cleavage rises from 0.0415 to 0.492.

First: U79G A83G
Second: G5C G34C
The self-cleavage of the first is higher: 0.138 for the first, 0 for the second.

Going from C19A U72C to A8G G34U, the self-cleavage rises from 0.0978 to 0.429.

First: C64A G74A
Second: G1C A51G
The self-cleavage of the first is lower: 0.295 for the first, 0.396 for the second.

Going from G80U A83U to C14G U72G, the self-cleavage rises from 0.181 to 0.312.

Compared with C30A G40U, A43C C85U is higher in self-cleavage: 0.183 for the first, 0.475 for the second.

Compared with A71U, A8U G74C is lower in self-cleavage: 0.93 for the first, 0.166 for the second.

First: G28A G40A
Second: C3A G35A
The self-cleavage of the first is lower: 0.0615 for the first, 0.859 for the second.

Going from A8U A16C to G50U A56G, the self-cleavage rises from 0.831 to 0.943.

First: C33G G67A
Second: G40C C61A
The self-cleavage of the first is lower: 0.089 for the first, 0.256 for the second.

Going from C14A C61U to G2A G55U, the self-cleavage falls from 0.656 to 0.271.

Going from G6U G59C to G31C C57G, the self-cleavage falls from 0.475 to 0.291.

Going from G34C U69G to A45U G82A, the self-cleavage falls from 0.703 to 0.162.

First: G6U A51G
Second: G55C C85G
The self-cleavage of the first is lower: 0.475 for the first, 1.15 for the second.

Going from A43C U46G to C33G G38C, the self-cleavage falls from 0.415 to 0.

Going from C3G C75G to C30G G74A, the self-cleavage rises from 0.0496 to 0.0733.

Compared with C18G U72G, C63G C86G is higher in self-cleavage: 0 for the first, 0.95 for the second.

Compared with G1U G59U, A42C A43U is lower in self-cleavage: 0.451 for the first, 0.122 for the second.

First: G40A A83G
Second: C3A U72A
The self-cleavage of the first is higher: 0.573 for the first, 0.07 for the second.

Going from A42G U60G to A8C G17C, the self-cleavage falls from 0.639 to 0.

Compared with G1U A42G, C19G G50A is lower in self-cleavage: 0.403 for the first, 0.073 for the second.

First: C33G C85U
Second: U27G G80C
The self-cleavage of the first is lower: 0.122 for the first, 0.213 for the second.

Compared with A45U U47C, G35C G73A is lower in self-cleavage: 0.772 for the first, 0.0723 for the second.

First: C49A A78C
Second: A42G U69C
The self-cleavage of the first is lower: 0.116 for the first, 0.462 for the second.

Compared with G50U G59A, G59C U69G is higher in self-cleavage: 0.852 for the first, 1.11 for the second.

Going from C66A C86U to U37C U60C, the self-cleavage falls from 0.9 to 0.864.

Compared with G59A U65G, G28A C66U is lower in self-cleavage: 0.801 for the first, 0.138 for the second.

First: C62U G73C
Second: C14G A71G
The self-cleavage of the first is lower: 0.354 for the first, 0.712 for the second.

Compared with C18A C48A, G10C A77U is higher in self-cleavage: 0.0369 for the first, 0.0554 for the second.

First: A45U G52C
Second: C14G C15G
The self-cleavage of the first is higher: 0.743 for the first, 0 for the second.

Going from C26U A87C to A78U C86A, the self-cleavage falls from 0.953 to 0.208.

First: G52A A71U
Second: A87G
The self-cleavage of the first is lower: 0.923 for the first, 0.984 for the second.

Compared with C4A C86U, G40U is higher in self-cleavage: 0.284 for the first, 0.717 for the second.

First: G55U G82C
Second: G76A C84A
The self-cleavage of the first is lower: 0.233 for the first, 0.958 for the second.

Going from G38U G73U to C21G C58U, the self-cleavage falls from 0.146 to 0.0314.

Compared with G39A G76C, C22G A78G is lower in self-cleavage: 0.57 for the first, 0.141 for the second.

Going from G25C U46C to C44G G76U, the self-cleavage rises from 0.0875 to 1.03.

Going from G31C G68U to U12A C64G, the self-cleavage rises from 0.233 to 0.437.

Compared with C14U C64U, C26U G53C is higher in self-cleavage: 0.972 for the first, 1.04 for the second.

Going from G6C C21U to C75A A78U, the self-cleavage rises from 0.0573 to 0.0852.

Going from C19U A87C to C13A G59A, the self-cleavage falls from 0.235 to 0.166.

For C3G C63A, the self-cleavage was 0.575.
